Measurements reported in patent publication US20130079278A1 (Novo Nordisk, published 2013).
*1 amine or outer side, *2 acyl side, *3 side chain or, on linkers, in order; H or OH if unused. Where no end group is shown, it is not given here. Side-chain parts run from the residue outwards. The star is where a group is joined. C18 diacid = O=C(O)CCCCCCCCCCCCCCCCC(=O)*; γGlu = O=C(O)[C@H](CCC(=O)[*:2])N[*:1]

B1: N^ε24-[(4S)-4-carboxy-4-[[(4S)-4-carboxy-4-[[(4S)-4-carboxy-4-[[(4S)-4-carboxy-4-(17-carboxyheptadecanoylamino)butanoyl]amino]butanoyl]amino]butanoyl]amino]buta … (peptide)
peptide: HSQGTFTSDYSKYLDIRRAQDFVK([γGlu-γGlu-γGlu-γGlu-C18 diacid])WLLST-NH2
modifications: N-terminus assumed
SMILES: CC[C@H](C)[C@H](NC(=O)[C@H](CC(=O)O)NC(=O)[C@H](CC(C)C)NC(=O)[C@H](Cc1ccc(O)cc1)NC(=O)[C@H](CCCCN)NC(=O)[C@H](CO)NC(=O)[C@H](Cc1ccc(O)cc1)NC(=O)[C@H](CC(=O)O)NC(=O)[C@H](CO)NC(=O)[C@@H](NC(=O)[C@H](Cc1ccccc1)NC(=O)[C@@H](NC(=O)CNC(=O)[C@H](CCC(N)=O)NC(=O)[C@H](CO)NC(=O)[C@@H](N)Cc1c[nH]cn1)[C@@H](C)O)[C@@H](C)O)C(=O)N[C@@H](CCCNC(=N)N)C(=O)N[C@@H](CCCNC(=N)N)C(=O)N[C@@H](C)C(=O)N[C@@H](CCC(N)=O)C(=O)N[C@@H](CC(=O)O)C(=O)N[C@@H](Cc1ccccc1)C(=O)N[C@H](C(=O)N[C@@H](CCCCNC(=O)CC[C@H](NC(=O)CC[C@H](NC(=O)CC[C@H](NC(=O)CC[C@H](NC(=O)CCCCCCCCCCCCCCCCC(=O)O)C(=O)O)C(=O)O)C(=O)O)C(=O)O)C(=O)N[C@@H](Cc1c[nH]c2ccccc12)C(=O)N[C@@H](CC(C)C)C(=O)N[C@@H](CC(C)C)C(=O)N[C@@H](CO)C(=O)N[C@H](C(N)=O)[C@@H](C)O)C(C)C
B2: N^ε24-[(4S)-4-carboxy-4-[[(4S)-4-carboxy-4-[[(4S)-4-carboxy-4-[[(4S)-4-carboxy-4-(17-carboxyheptadecanoylamino)butanoyl]amino]butanoyl]amino]butanoyl]amino]buta … (peptide)
peptide: HSQGTFTSDYSKYLDVRRAQDFVK([γGlu-γGlu-γGlu-γGlu-C18 diacid])WLLST-NH2
modifications: N-terminus assumed
SMILES: CC(C)C[C@H](NC(=O)[C@H](Cc1c[nH]c2ccccc12)NC(=O)[C@H](CCCCNC(=O)CC[C@H](NC(=O)CC[C@H](NC(=O)CC[C@H](NC(=O)CC[C@H](NC(=O)CCCCCCCCCCCCCCCCC(=O)O)C(=O)O)C(=O)O)C(=O)O)C(=O)O)NC(=O)[C@@H](NC(=O)[C@H](Cc1ccccc1)NC(=O)[C@H](CC(=O)O)NC(=O)[C@H](CCC(N)=O)NC(=O)[C@H](C)NC(=O)[C@H](CCCNC(=N)N)NC(=O)[C@H](CCCNC(=N)N)NC(=O)[C@@H](NC(=O)[C@H](CC(=O)O)NC(=O)[C@H](CC(C)C)NC(=O)[C@H](Cc1ccc(O)cc1)NC(=O)[C@H](CCCCN)NC(=O)[C@H](CO)NC(=O)[C@H](Cc1ccc(O)cc1)NC(=O)[C@H](CC(=O)O)NC(=O)[C@H](CO)NC(=O)[C@@H](NC(=O)[C@H](Cc1ccccc1)NC(=O)[C@@H](NC(=O)CNC(=O)[C@H](CCC(N)=O)NC(=O)[C@H](CO)NC(=O)[C@@H](N)Cc1c[nH]cn1)[C@@H](C)O)[C@@H](C)O)C(C)C)C(C)C)C(=O)N[C@@H](CC(C)C)C(=O)N[C@@H](CO)C(=O)N[C@H](C(N)=O)[C@@H](C)O
B3: N^ε24-[(4S)-4-carboxy-4-[[(4S)-4-carboxy-4-[[(4S)-4-carboxy-4-[[(4S)-4-carboxy-4-(17-carboxyheptadecanoylamino)butanoyl]amino]butanoyl]amino]butanoyl]amino]buta … (peptide)
peptide: HSQGTFTSDYSKYLDLRRAQDFVK([γGlu-γGlu-γGlu-γGlu-C18 diacid])WLLST-NH2
modifications: N-terminus assumed
SMILES: CC(C)C[C@H](NC(=O)[C@H](CC(=O)O)NC(=O)[C@H](CC(C)C)NC(=O)[C@H](Cc1ccc(O)cc1)NC(=O)[C@H](CCCCN)NC(=O)[C@H](CO)NC(=O)[C@H](Cc1ccc(O)cc1)NC(=O)[C@H](CC(=O)O)NC(=O)[C@H](CO)NC(=O)[C@@H](NC(=O)[C@H](Cc1ccccc1)NC(=O)[C@@H](NC(=O)CNC(=O)[C@H](CCC(N)=O)NC(=O)[C@H](CO)NC(=O)[C@@H](N)Cc1c[nH]cn1)[C@@H](C)O)[C@@H](C)O)C(=O)N[C@@H](CCCNC(=N)N)C(=O)N[C@@H](CCCNC(=N)N)C(=O)N[C@@H](C)C(=O)N[C@@H](CCC(N)=O)C(=O)N[C@@H](CC(=O)O)C(=O)N[C@@H](Cc1ccccc1)C(=O)N[C@H](C(=O)N[C@@H](CCCCNC(=O)CC[C@H](NC(=O)CC[C@H](NC(=O)CC[C@H](NC(=O)CC[C@H](NC(=O)CCCCCCCCCCCCCCCCC(=O)O)C(=O)O)C(=O)O)C(=O)O)C(=O)O)C(=O)N[C@@H](Cc1c[nH]c2ccccc12)C(=O)N[C@@H](CC(C)C)C(=O)N[C@@H](CC(C)C)C(=O)N[C@@H](CO)C(=O)N[C@H](C(N)=O)[C@@H](C)O)C(C)C

The binders below were run against glucagon receptor (human, UniProt P47871 26-477) (assay: cell-based or functional assay).
glucagon receptor, sequence (P47871 26-477): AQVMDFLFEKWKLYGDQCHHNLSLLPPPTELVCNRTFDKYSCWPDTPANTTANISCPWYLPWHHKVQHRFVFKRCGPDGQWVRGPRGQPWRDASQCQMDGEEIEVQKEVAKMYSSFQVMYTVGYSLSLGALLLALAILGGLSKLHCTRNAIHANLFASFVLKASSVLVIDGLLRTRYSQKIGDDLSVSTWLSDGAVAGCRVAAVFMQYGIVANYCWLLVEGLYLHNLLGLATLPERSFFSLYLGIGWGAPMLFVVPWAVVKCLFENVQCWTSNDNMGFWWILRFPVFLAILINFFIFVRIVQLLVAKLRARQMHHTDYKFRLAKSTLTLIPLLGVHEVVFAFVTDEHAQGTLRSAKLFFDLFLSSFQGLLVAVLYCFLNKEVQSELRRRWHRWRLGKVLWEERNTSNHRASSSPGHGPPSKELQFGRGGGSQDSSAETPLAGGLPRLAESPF
For B1, the “Assay (I) Glucagon [EC50]” value was 0.402 nM.
B2 was tested, and the “Assay (I) Glucagon [EC50]” value was 0.268 nM.
B3 was tested, and the “Assay (I) Glucagon [EC50]” value was 0.812 nM.
